Here are results for 19 sequences from a protein production outcome set (Wang et al. 2014).

This series in a line: label from the status in PepcDB records.
Turning to “MATQARLPLPVGSTTSVSVVIPAKNVAAYVGETLASALAQGEVTEVIVVDDGSTDNTIAIVRAIRDPRLRLMTNDSAGVSAARNLGARHASGEWLLFLDADDRLRPGAVAALLAAARGAPRAVLVYGDYNTIDSEGRQVGRRDLLKGRRKPSGDVLTRLAASNFIVNGGIALARAEAFRAIGGFDTSLRYCEDWHCWCRLAAIGEFEFAPKLLLDYRLHTANTMNAAVRTPQDFFPAIARVFDDGLILARLPEGTAARLRQAAEIHLVTYSAMQAVRFGRYRQAFTYLGMVGRRSLKSLPRSALRVALACFGILEHHHHHH”, the protein production result is reported as “failed”.

In the case of “MATRQPLDATACSLMVGLCAIWGLQQVALKATASDIAPVLQIALRSGGAALLVGLLMCWRGERLGLGDGHWRPGLLVGGLFALEFLLVGEGLRYTTASHMAIFLYTAPIFAALGLHWLMPAERLKPAQWLGIGVAFGGIVVAFSGPAAAGHGGGSHVLLGDFLGVLGGVAWGATTVVVRCSRLASSPTTRTLQYQLLGAFVWLGLAALLTDQTSIHFTPLVVASLGFQVLVVSFASFLIWFTLLRRYPASRLGVLSFMTPLFGIGFGVWLLHEPLEPNFIFGALLVLAGIVMVSGYEWLRQRFKRNRESPVAPRSS”, the protein production result was “failed”. As for “MATRSCVSRGSAGSAAAGPVEAAIRAKLEQALSPEVLELRNESGGHAVPAGSETHFRVAVVSSRFEGMSPLQRHRLVHEALSEELAGPVHALAIQAKTPAQWRENPQLDISPPCLG”, the protein production result is reported as “not failed”. For the sequence “MATTLLSPTRFVHGLRFDNLRGDIFGGITAAIVALPLALAFGVASGAGPIAGLYGAICTGFFAALFGGTPAQISGPTGPMTVVMASTFANLTASNPENGWAMALTVVMFGGIFQVVLGLLGLGKYITFMPYTVISGFMSGIGVIIVILQIAPLLGHQTAPGVVPSLQAIPTYLNDVNFAALGLGLIALAIVFFSPPRLNRILPAPLIALVLGTIISMIFFGNVSLPRIGEIPSGLPSLHLPYLSWGSLQQMLLYSIMLAVLGSLDSLLTSLVADNISRSHHDSDRELVGQGIGNLVSGLCGGLPGAGATMRTVININSGGKTPIAGMIHALILLMIVLKAGQLTEPIPHAVLAGILIKVGIDIVDWSFLKRAHQLSTKGAGLMYLVLGLTVFVDLITAVAVGVFVANLFTVKNLTDLQLESIKSVTRADGEDWLLEEEQQILRAANGRIFMFHLSGPMSFGAAKSIARRLAIVENYDVLILDLATVPRLGVTALLAIETMLKDALAKQREVFLVGAKGQVQARLQRLPVLAQLSPHHRLESRLLALQMAAVCINVD”, the protein production result is listed as “failed”. Turning to “MATTPRVDAGGGSSMFAAVPLLALPVIVYNLVALTLTGGFKATDATARMNEALFTIHMTSRTDWAVSLGDLLMAASLVVLFVELLKSTTSRKIAIINHSLSMVLFILCLVEFLLAPAFATSTFFLITLMVLLDVLAGFIVTIVAARRDVDFGDN”, the protein production entry was “failed”. Take “MATTSAQTSPTEFGAGLPEAEDHSESAEPQSVEAEVIDERYADVWEKIQHARTIDVHDDAEVRKQRNFFDDKQKFMTQVTQRAEPFLYYIVSQLEARNMPLELALLPIVESGYNPLAQANGPAGLWQMIPATGRNFGLTINSAYDGRKDALASTDAVLDYLQHLYNTLGNDWINAVAGYNSGELVIKAAIDRNKAKGKPTDFWSLNIPARQVQTVPKWLAFIQIIREPSHYNLKVMPIANRPFLERLPAPNGVEISQIANAAGLTKAEFKTYNPGYRQSVIPSKGKYQIALPIENIGHYQENQHKLYAQKRYDSQTYIVKSGDSLGTIAAKFDLSVKELKQANNLTSDRLKIGQELTLLTPMAANDNEPEPVKTKANTDKSSTKANASSTKATSSKSTDKPVAKAKTYKVKSGDSLDKIARKSKVKLADLMKWNQLNAKSIIKPGQELKISELEHHHHHH”: the protein production result is “failed”. In the case of “MATVIAKPEAIAPEPKRRFTWPRGSRLGRLIVVLNVVALAIVIVGALILNELRNGLVNARIDSLSTQGELIANVIDQSATVGEPEPALDPYTASQIFQLLFIPRSQRARLFDAQGKALADSFVVADRVDWKVLPPARKPDQKDDDARTTPDRAAKAKRAQEALANEIAQAMRGRTVAGTRIAENGERVVSVSIPIQHVKAVLGVLTLEASDVDEIIAAQRKALLPFIAVAMLAILTSSVLLHRLIAVPVLRLARAADHVRLQGARAISLPDLSERKDELGDLSRSLEDMTHSLSERMDAIERFAADVAHEIKNPLTSIRSAIETLDLVTEPAARARLLAILQNDVNRLDRLVTDISNASRLDAELSREHPKALDLGRLLTEVVSLYENQWRPGDAPGSVRVSLSLADPSQPAIILGRETPIGQVFRNLIDNARSFSPADGEVRVTLSRTRGGLIAAVEDDGPGMPPENLETIFERFYTSRPKGRAFGGNSGLGLSIARQIVETHGGTVHAENRKDANGAVVGARFVVELPDARE”, the protein production result is reported as “failed”. For the sequence “MATVPSNPAFAPTLSTRGRLNGILFVALFAVAVTQLAAMPAIANLGISPLIVGIVAGALYGNALRDGVPASWAAGINFSARGLLRIAVAFFGLRVSLQEIAEVGWSGLIVSVLVVTSTLLIGLWCGMKVFKLDRDTALLTAAGSAICGAAAVLAFESALRSAPHKSAMAVGSVVLFGTLSMFLYPLAINAGWLHLDTMGAGLLLGGTVHEVAQVVGAASNVSPEATHVATIVKMTRVMLLVPVLLVVGLWISRSRKAGQAQGNGRIAMPWFAFGFLALVLVNSMQVLPGSVTQAVNSLDTFALTMAMTALGMETRFSQIRQAGPRALATGAILNLWLVGGGLAITLGVQKLLG”, the protein production entry is recorded as “failed”. For the sequence “MATYSLANERLRALEDIEREIGAILQNAGTAILELSKEKTNERLLDRQAAAFTTSVQHVEAELSAQIRYLTQVATGQPHEGSSYSSRKDCQMALKRVDYARLKISDVARTCEQMLEN”, the protein production entry is on record as “failed”. The result for “MAVDWERRIDFDRLRTQRLTRALDALERSELGALLLFDMNNIRYTTATHIGNWARDKLFRMALLIRGQAPILWDIGSAARLHQMQAPWLPQESWRAGLSTWRGAIDDEVGVQTGNAKKVADLLREHGLANDPVGVDVVELPMLKALEAEGLTIVDGQGLMLDVRSIKTVDEIALLDHAAACVDAAYEELYKFLRVGVKENETVALVNKVLYELGSEEVEAVNAISGERCSPHPHVFSDRMIRPMDTAYFDIVHSYMGYRTCYYRTLNVAGATRAQRDAYKRAREYIDLAISEVKPGVLTSDIVKHFPAAQEFGFASEEEAFGLQYCHGVGLSVWEKPLMSRYHSFDHPVEIKEGMVFALETYWPTADGSSAARIEEEVEVTATGARVITRFPADELLVAGTRYWNGFDFPEIKAPIGRGVASGVAATNGAGAS” reads “failed”; that for “MAVFVALGAFLMTLAGGWTAQRVTDRRHLVLGLAGGLMLGVVGMDLLPEALDAAGGKVFGVPAALLLFVAGFLLAHLVERLLAHRQAAHGGAESNGRAPEVGLTAAAAMVGHSAMDGVAIGAAFQVGGGMGLAVAVAVIAHDFADGFNTYTLTALYGNARRKAVIMLVADAVAPVLGAASTLAFTIPERLLGGYLALFGGALLYLAAAEILPEAHHEHPARSTLLCTVAGVGFIWLVVGLAG”, “failed”. Regarding “MAVIADPETAQGFRLAGLEGYGASSAEEAQSLLETLVERGGYALVAVDEALLSDPERAVERLMRGRDLPVLLPIAGLKEAFQGHDVEGYMRELVRKTIGFDIKLLEHHHHHH”, the protein production entry is “failed”. With “MAVLNLFHIFATTVDSTAVEKNLLIMKFYNREKEIAELKRVQELAFGQNSRMIVVTGRRRIGKTSLIKQALKGTPTVYFFIGRKAESILVADFIKIVRETLSIFIPDGISNFTTLIQYLFEIGKTRSFNIVIDEFQEFYNIRPDVFSDMQNLWDEYRQETKINLVISGSVYSLMQKIFTDHGEPLFGRADNILCLRPFNTKVLKQIMEDFAPGYSNDDLLALYTLTGGIPKYVELFCDNQALSVDRIYDFVFSENSLFIDEGRNLLITEFGKNYGIYFSILLEIANGHYTQGEIESALGGISIGGHLSKLENVYNLITRERPIFAKPGTKKNVRYIIGDNFLNFWFKYIERNRSYIELQNFEDLRQLAKADYQTYSGRVLEKYFKQKLAEEGGFKEIGSWWETKSSANKERLNSFEIDIVALKSSGKKALIAEVKRMPENNYVHSTFMEKVEHLKHKEMAKYDIETRVLGLEDM” the entry was “failed”; with “MAVNPATGKSDFVMMSEQQELGMGARYNQEILKQFPRYNDEKLQAYVQRVGERVARSSHRSNLQYHFTVIDSPDINAFALPGGYIYIHRGLIAYLGSEAELAAVLGHEVGHVTARHSVRQQSQASAWNILGQAVAIGTGVGAAGDLANVLGTAFVRGYGRDMELEADGLGAQYLARAGYDPTAMIQVVRVLKNQEDFAREEAARNGQAVQAGGYHGLFDTHPDNDRRLQEVVGPARQLANGQQEVGREVFLRHLEGMPFGDSASAGVRRGQNFYHAELDFTLSYPAGWKILNQPSALLGYPADEQSFIGMKLVPHDSRLTPAEFLRKNAGQRLAQEESLKQAGLNGYTAVVPGNPARRVAVIYQGDRAYLFVGVVKVGSLETQDDRFLSVIRSFRPLRDKERALAQPRRLHLVQVKAGQTLEQLAAGGEGSLSDSVARLRLLNDLYPSGEPRPGDWLKVVRLEHHHHHH”, “failed”. On to “MAVNQDTLYVKGDRNVEVTKREVTLGDLVSMECSNRVILPHLKTMKVLKIPENGEKRYVISILKIIACIHEKYPGLEVQNLGETDLIVTYEMQKTPSK”, for which the protein production entry was “not failed”. With “MAVTDVFARRATLRRSLRLLADFRYEQRDPARFYRTLAADTAAMIGDLWLATHSEPPVGRTLLDVGGGPGYFATAFSDAGVGYIGVEPDPDEMHAAGPAFTGRPGMFVRASGMALPLADDSVDICLSSNVAEHVPRPWQLGTEMLRVTKPGGLVVLSYTVWLGPFGGHEMGLSHYLGGARAAARYVRKHGHPAKNNYGSSLFAVSAAEGLRWAAGTGAALAVFPRYHPRWAWWLTSVPVLREFLVSNLVLVLTP” the entry was “failed”; with “MAVYMLNMGIVFVWSWFAKMYGREDHRLPTGYRPNAILTVVPLASLIIVAGLRYKVGTDYHTYMLLYELAGKYNSIWEIFGFGTGKSSTDPGFTALLWILNQISADPALMFAVVAAITYIYIVKTLYVYGRPFELSMFLFIGMFHYYASFNGIRQYMAAAILFWAVRYLIDGKLVRYMIVVLICSLFHSSALIMIPVYFIVRRKAWSPVLWCLMLVFLAGTFLYQKFLSVFLVVLENSQYGHYEEWLMKNTNGMNVIKIIVLLLPLALAFCFREQLRKRWPEVDYIVNLCLIGFLFGILATKDVIFARFNIYFGLYQLILVPYFVRIFEPKSNALLYVLILICYFLYSFMLMPFDSSVLPYRTIFER”, “failed”. Take “MAWHAAEDRSLGFKETYLMQRFGAGVVIDDFELVEKLPSGGMASLWRATNPRYDFPLVLKIPFLDPGADVSVILGFEAEELILKRLSGPHVPRFAASGSLAQVPYIAMEFVVGKGLADIVGNAPLPMDEVARIGIEIATALAALHRQKVVHLDLKPENVVLANRGAVLLDFGLARHEELPDFLGAESSVPMGTAAYISPEQVLGERSDPASDLFALGCILFQLATGEEPFGRPATLAGMKRRLYHAPRSPRDINDAIPRWLEAIILKCMEVDRSQRYIEAAHILSDLRSPDQVVVAKRKPRNEGGWAAITSLFRKTDDRSLVGRASSTRTQAGPSIVLAAVDLANGTDALAGEVLNETARVLASREDSWLACVTVLRTEIIGDTPATDETGRSVYLKRLVALKDWAYPLHLPEDRISYHVLEAVSPADAILTYAEHNDVGHIVVGARASSAIRRHLGSVSTKVVAQALCSVSVVRLKAVEEQQRRPL”: the protein production result was “failed”.

With “MAYGKAHLEAQLKRALAEEIQALEDPRLFLLTVEAVRLSKDGSVLSVYVEAFREEEGALRALSRAERRLVAALARRVRMRRLPRLEFLPWRASPA”, the protein production entry is “not failed”.
